Measurements as given in patent US20070202544.

What was measured:
[1] = target: HA-tagged wild-type insulin 2 (UniProt P01326)
[2] = target: HA-tagged C96Y mutant insulin 2 (UniProt P01326)

Substance: HRD1 (from plasmid HRD1-pCMVSPORT6)
- ubiquitination of insulin-2 (IP with anti-HA, immunoblot with anti-Flag for Flag-ubiquitin) [1]: HRD1 expression did not increase the ubiquitination of wild-type insulin-2
- ubiquitination of insulin-2 (IP with anti-HA, immunoblot with anti-Flag for Flag-ubiquitin) [2]: did increase that of C96Y insulin-2
